Measured values taken from patent publication US20210206856A1 (PANDION OPERATIONS, published 2021).

T1: human MAdCAM expressed on cells (human, UniProt Q13477 19-382)
T1 construct: whole, on cells; also called MADCAM1
T1 sequence (looked up): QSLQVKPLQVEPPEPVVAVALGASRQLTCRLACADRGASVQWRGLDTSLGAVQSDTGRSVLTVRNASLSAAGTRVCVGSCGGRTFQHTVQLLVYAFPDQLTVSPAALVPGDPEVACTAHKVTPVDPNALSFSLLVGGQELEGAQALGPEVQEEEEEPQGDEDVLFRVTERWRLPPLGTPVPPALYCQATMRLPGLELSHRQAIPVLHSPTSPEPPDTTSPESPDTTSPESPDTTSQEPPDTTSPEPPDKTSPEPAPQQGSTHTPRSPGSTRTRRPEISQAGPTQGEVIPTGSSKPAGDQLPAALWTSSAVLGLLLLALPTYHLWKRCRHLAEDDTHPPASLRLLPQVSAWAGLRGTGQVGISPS

T2: mouse MAdCAM expressed on cells (mouse, UniProt Q61826 22-405)
T2 construct: whole, on cells
T2 sequence (looked up): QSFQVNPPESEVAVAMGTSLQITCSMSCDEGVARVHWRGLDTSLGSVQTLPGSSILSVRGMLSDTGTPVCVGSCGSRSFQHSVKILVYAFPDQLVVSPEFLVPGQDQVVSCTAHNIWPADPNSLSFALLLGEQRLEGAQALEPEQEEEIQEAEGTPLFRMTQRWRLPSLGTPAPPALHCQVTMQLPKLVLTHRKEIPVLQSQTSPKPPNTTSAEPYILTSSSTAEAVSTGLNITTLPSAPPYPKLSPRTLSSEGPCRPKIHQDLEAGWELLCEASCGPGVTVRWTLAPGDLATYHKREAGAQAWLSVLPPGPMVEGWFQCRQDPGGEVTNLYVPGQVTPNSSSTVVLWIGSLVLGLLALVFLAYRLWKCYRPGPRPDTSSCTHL


Assays:
[1] = molecular target: T1, human MAdCAM expressed on cells; experiment: cell binding
[2] = molecular target: T2, mouse MAdCAM expressed on cells; experiment: cell binding

Row | Binder | binding result [1] | binding result [2]
1 | MAdCAM Antibody Table 2 Clone 45 (antibody, human IgG1, V domains shown) VH: EVQLVESGGGLVKPGGSLRLSCAASGFTFGDYAMSWVRQAPGKGLEWVSYISGDIGYTNYAAPVKGRFTISRDDSKNTLYLQMNSLKTEDTAVYYCARDVAATGNWYFDLWGRGTLVTVSS VL: not shown | binds | no binding
2 | MAdCAM Antibody Table 2 Clone 55 (antibody, human IgG1, V domains shown) VH: EVQLLESGGGLVQPGGSLRLSCAASGFTFDDFAMHWVRQAPGKGLEWVSGISGNGDSRYYADSVKGRFTISRDNSKNTLYLQMNSLRAEDTAVYYCARDASYGGNYGMDVWGQGTTVTVSS VL: DIQMTQSPSSLSASVGDRVTITCQASQDIRNYLNWYQQKPGKAPKLLIYKASTLESGVPSRFSGSGSGTDFTLTISSLQPEDFATYYCQQANSFPLTFGPGTKVDIK | binds | no binding
3 | MAdCAM Antibody Table 2 Clone 40 (antibody, human IgG1, V domains shown) VH: QVQLVQSGAEVKKPGASVKVSCKASGYTLTTWYMYWVRQAPGQGLEWMGWINPNRGATNYAQKFQGRVTMTRDTSTSTVYMELSSLRSEDTAVYYCAKGDLWGAMDVWGQGTLVTVSS VL: DIQMTQSPSSLSASVGDRVTITCRASDNIGSWLAWYQQKPGKAPKLLIYAASSLQSGVPSRFSGSGSGTDFTLTISSLQPEDFATYYCQQGYSTPPTFGQGTKVEIK | binds | no binding
4 | MAdCAM Antibody Table 2 Clone 36 (antibody, human IgG1, V domains shown) VH: EVQLLESGGGLVQPGGSLRLSCAASGFTFDDYALHWVRQAPGKGLEWVSAISGDGRSTTYADSVKGRFTISRDNSKNTLYLQMNSLRAEDTAVYYCARDGTVNGATGWFDPWGQGTLVTVSS VL: not shown | binds | binds
5 | MAdCAM Antibody Table 2 Clone 37 (antibody, human IgG1, V domains shown) VH: EVQLLESGGGLVQPGGSLRLSCAASGFTFSDYGMPWVRQAPGKGLEWVSAISGSGGSTYYADSVKGRFTISRDNSKNTLYLQMNSLRAEDTAVYYCARDGGWQPAAILDYWGQGTLVTVSS VL: DIQMTQSPSSLSASVGDRVTITCRASQGISNNLNWYQQKPGKAPKLLIYDASNLETGVPSRFSGSGSGTDFTLTISSLQPEDFATYYCQQSYSTPLTFGQGTKVEIK | binds | no binding
6 | MAdCAM Antibody Table 2 Clone 38 (antibody, human IgG1, V domains shown) VH: QVQLVQSGAEVKKPGASVKVSCKASGYTFTDYFLHWVRQAPGQGLEWMGWMNPTSGNTGYAQKFQGRVTMTRDTSTSTVYMELSSLRSEDTAVYYCAREGEGSGFDYWGQGTLVTVSS VL: DIQMTQSPSSLSASVGDRVTITCRASQGINSWLAWYQQKPGKAPKLLIYDASNLETGVPSRFSGSGSGTDFTLTISSLQPEDFATYYCQQSYSTPLTFGGGTKVEIK | binds | no binding
7 | MAdCAM Antibody Table 2 Clone 41 (antibody, human IgG1, V domains shown) VH: QVQLVQSGAEVKKPGASVKVSCKASGYTFTSYYMHWVRQAPGQGLEWMGIINPSGGSTSYAQKFQGRVTMTRDTSTSTVYMELSSLRSEDTAVYYCARDTGYSYGRYYYYGMDVWGQGTLVTVSS VL: DIQMTQSPSSLSASVGDRVTITCRASQSIGRWLAWYQQKPGKAPKLLIYDASNLQSGVPSRFSGSGSGTDFTLTISSLQPEDFATYYCQQSYSIPITFGQGTKVEIK | binds | no binding
8 | MAdCAM Antibody Table 2 Clone 42 (antibody, human IgG1, V domains shown) VH: QVQLVQSGAEVKKPGASVKVSCKASGYTLTDYYMHWVRQAPGQGLEWMGIINPSGGSTSYAQKFQGRVTMTRDTSTSTVYMELSSLRSEDTAVYYCAREEYSSSSGYFDYWGQGTLVTVSS VL: DIQMTQSPSSLSASVGDRVTITCRASQGISSWLAWYQQKPGKAPKLLIYAASSLQSGVPSRFSGSGSGTDFTLTISSLQPEDFATYYCQQSYSTPLTFGQGTKVEIK | binds | no binding
9 | MAdCAM Antibody Table 2 Clone 56 (antibody, human IgG1, V domains shown) VH: EVQLVESGGGLVKPGGSLRLSCAASGFTFSSYWMSWVRQAPGKGLEWVSAIGTGGGTYYAAPVKGRFTISRDDSKNTLYLQMNSLKTEDTAVYYCAREWLVPYYGMDVWGQGTTVTVSS VL: DIQMTQSPSSLSASVGDRVTITCRASQSISRWLAWYQQKPGKAPKLLIYGASNLQSGVPSRFSGSGSGTDFTLTISSLQPEDFATYYCQQSYSTPWTFGQGTKVEIK | binds | no binding
10 | MAdCAM Antibody Table 2 Clone 53 (antibody, human IgG1, V domains shown) VH: QVQLVQSGAEVKKPGASVKVSCKASGYTFTSYYMHWVRQAPGQGLEWMGWMNPNSGNTGYAQKFQGRVTMTRDTSTSTVYMELSSLRSEDTAVYYCAREGLGYCTNGVCWNYYGMDVWGQGTLVTVSS VL: DIQMTQSPSSLSASVGDRVTITCRASQGISSWLAWYQQKPGKAPKLLIYGASSLQSGVPSRFSGSGSGTDFTLTISSLQPEDFATYYCQQSYSTPYTFGQGTKVEIK | binds | no binding
11 | MAdCAM Antibody Table 2 Clone 39 (antibody, human IgG1, V domains shown) VH: QVQLVQSGAEVKKPGASVKVSCKASGYTFTSYYMHWVRQAPGQGLEWMAWMNPNSGNTGYAQKFQGRVTMTRDTSTSTVYMELSSLRSEDTAVYYCARDYDFWSGSLGYWGQGTLVTVSS VL: DIQMTQSPSSLSASVGDRVTITCRASQGISNYLAWYQQKPGKAPKLLIYAASSLQSGVPSRFSGSGSGTDFTLTISSLQPEDFATYYCQQSYSTPWTFGQGTKVEIK | binds | no binding

The next lines start with the values.

Row | binding result [1] | binding result [2] | Binder
12 | binds | no binding | MAdCAM Antibody Table 2 Clone 43 (antibody, human IgG1, V domains shown) VH: QVQLVQSGAEVKKPGASVKVSCKASGYTFTSYGISWVRQAPGQGLEWMGWMHPKSGDTGLTQKFQGRVTMTRDTSTSTVYMELSSLRSEDTAVYYCARDTPYYYYGMDVWGQGTTVTVSS VL: DIQMTQSPSSLSASVGDRVTITCRASQSISSWLAWYQQKPGKAPKLLIYAASSLQSGVPSRFSGSGSGTDFTLTISSLQPEDFATYYCQQSYSVPITFGQGTKVEIK
13 | binds | no binding | MAdCAM Antibody Table 2 Clone 59 (antibody, human IgG1, V domains shown) VH: EVQLLESGGGLVQPGGSLRLSCAASGFSFSDYGMHWVRQAPGKGLEWVSAISGSGGSTYYADSVKGRFTISRDNSKNTLYLQMNSLRAEDTAVYYCARDGGWQPAAILDYWGQGTLVTVSS VL: DIQMTQSPSSLSASVGDRVTITCRASQGISNNLNWYQQKPGKAPKLLIYDASNLETGVPSRFSGSGSGTDFTLTISSLQPEDFATYYCQQSYSTPLTFGGGTKVEIK
14 | binds | no binding | MAdCAM Antibody Table 2 Clone 54 (antibody, human IgG1, V domains shown) VH: QVQLVQSGAEVKKPGSSVKVSCKASGGTLSRYGVSWVRQAPGQGLEWMGGIIPIFGTTNYAQKFQGRVTITADESTSTAYMELSSLRSEDTAVYYCARDRVYYDSSGYPTWYFDLWGRGTLVTVSS VL: EIVMTQSPATLSVSPGERATLSCRASQSVSSSYLAWYQQKPGQAPRLLIYGASTRATGIPARFSGSGSGTEFTLTISSLQSEDFAVYYCQQYGSSPITFGQGTKVEIK
15 | binds | no binding | MAdCAM Antibody Table 2 Clone 44 (antibody, human IgG1, V domains shown) VH: not shown VL: DIQMTQSPSSLSASVGDRVTITCQASQDISNYLNWYQQKPGKAPKLLIYAASSLQSGVPSRFSGSGSGTDFTLTISSLQPEDFATYYCQQTYSGWTFGPGTKVDIK
16 | binds | no binding | MAdCAM Antibody Table 2 Clone 52 (antibody, human IgG1, V domains shown) VH: EVQLLESGGGLVQPGGSLRLSCAASGFTFDDYGMSWVRQAPGKGLEWVSYISSSSSYIYYADSVKGRFTISRDNSKNTLYLQMNSLRAEDTAVYYCAREIAAAGFYGMDVWGQGTTVTVSS VL: not shown
